Assay results published in the supplement of paper PMC9112550, “Optimization of the antimicrobial peptide Bac7 by deep mutational scanning” (BMC Biology, 2022).

System: Escherichia coli TOP10
Assay: shrunken log2 fold change of peptide-encoding DNA abundance (4.5 h post-induction vs induction); higher = less antimicrobial activity (less host growth inhibition)
Details: time post-induction: 4.5 h; library: site-saturation at positions 5, 18, 19, 20
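Also: peptides expressed intracellularly from a pBAD plasmid library in pooled LB shake-flask culture, induced with 0.3% L-arabinose, DNA abundance read by NGS, three biological replicates, DESeq2 with apeglm shrinkage.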

Row | Sequence | shrunken log2 fold change
1 | RRIRWRPPRLPRPRPRPEYMPRP | -0.0342
2 | RRIRWRPPRLPRPRPRPFAIPRP | 0.086
3 | RRIRWRPPRLPRPRPRPFAYPRP | -0.304
4 | RRIRWRPPRLPRPRPRPFCSPRP | -0.0764
5 | RRIRWRPPRLPRPRPRPFDIPRP | -0.838
6 | RRIRWRPPRLPRPRPRPFFDPRP | 0.0993
7 | RRIRWRPPRLPRPRPRPFFPPRP | -0.0359
8 | RRIRWRPPRLPRPRPRPFFRPRP | 0.33
9 | RRIRWRPPRLPRPRPRPFGKPRP | -0.578
10 | RRIRWRPPRLPRPRPRPFHNPRP | -0.392
11 | RRIRWRPPRLPRPRPRPFHVPRP | -0.0106
12 | RRIRWRPPRLPRPRPRPFILPRP | -0.476
13 | RRIRWRPPRLPRPRPRPFLRPRP | 0.0966
14 | RRIRWRPPRLPRPRPRPFMWPRP | -0.0278
15 | RRIRWRPPRLPRPRPRPFNKPRP | -0.441
16 | RRIRWRPPRLPRPRPRPFPEPRP | -0.145
17 | RRIRWRPPRLPRPRPRPFQFPRP | -0.198
18 | RRIRWRPPRLPRPRPRPFRCPRP | -0.257
19 | RRIRWRPPRLPRPRPRPFSIPRP | -0.228
20 | RRIRWRPPRLPRPRPRPFTCPRP | 0.000407
21 | RRIRWRPPRLPRPRPRPFTVPRP | -0.512
22 | RRIRWRPPRLPRPRPRPFWEPRP | 0.121
23 | RRIRWRPPRLPRPRPRPFWRPRP | 0.111
24 | RRIRWRPPRLPRPRPRPGAGPRP | 0.796
25 | RRIRWRPPRLPRPRPRPGCIPRP | 0.293

Row | Sequence | shrunken log2 fold change
26 | RRIRWRPPRLPRPRPRPGCQPRP | -0.0225
27 | RRIRWRPPRLPRPRPRPGEGPRP | 0.154
28 | RRIRWRPPRLPRPRPRPGFMPRP | 0.212
29 | RRIRWRPPRLPRPRPRPGFWPRP | 0.494
30 | RRIRWRPPRLPRPRPRPGGWPRP | 0.851
31 | RRIRWRPPRLPRPRPRPGHIPRP | -0.0732
32 | RRIRWRPPRLPRPRPRPGHKPRP | -0.14
33 | RRIRWRPPRLPRPRPRPGHSPRP | 0.0135
34 | RRIRWRPPRLPRPRPRPGHWPRP | 0.335
35 | RRIRWRPPRLPRPRPRPGIYPRP | -0.137
36 | RRIRWRPPRLPRPRPRPGLCPRP | 0.412
37 | RRIRWRPPRLPRPRPRPGMCPRP | 0.437
38 | RRIRWRPPRLPRPRPRPGNGPRP | -0.0519
39 | RRIRWRPPRLPRPRPRPGNVPRP | -0.127
40 | RRIRWRPPRLPRPRPRPGPDPRP | 0.533
41 | RRIRWRPPRLPRPRPRPGPFPRP | 0.125
42 | RRIRWRPPRLPRPRPRPGQPPRP | 0.326
43 | RRIRWRPPRLPRPRPRPGRKPRP | -0.0532
44 | RRIRWRPPRLPRPRPRPGSQPRP | 0.584
45 | RRIRWRPPRLPRPRPRPGSVPRP | 0.306
46 | RRIRWRPPRLPRPRPRPGTEPRP | 0.403
47 | RRIRWRPPRLPRPRPRPGTTPRP | 0.0295
48 | RRIRWRPPRLPRPRPRPGVPPRP | 0.184
49 | RRIRWRPPRLPRPRPRPGYIPRP | 0.226
50 | RRIRWRPPRLPRPRPRPHAGPRP | -0.0783

Row | Sequence | shrunken log2 fold change
51 | RRIRWRPPRLPRPRPRPHANPRP | -0.00914
52 | RRIRWRPPRLPRPRPRPHCVPRP | -0.169
53 | RRIRWRPPRLPRPRPRPHEKPRP | -0.00914
54 | RRIRWRPPRLPRPRPRPHENPRP | 0.0568
55 | RRIRWRPPRLPRPRPRPHFDPRP | -0.0757
56 | RRIRWRPPRLPRPRPRPHGDPRP | 0.145
57 | RRIRWRPPRLPRPRPRPHHHPRP | -0.428
58 | RRIRWRPPRLPRPRPRPHIEPRP | 0.0376
59 | RRIRWRPPRLPRPRPRPHIKPRP | -0.243
60 | RRIRWRPPRLPRPRPRPHKEPRP | -0.0233
61 | RRIRWRPPRLPRPRPRPHKKPRP | 0.028
62 | RRIRWRPPRLPRPRPRPHKNPRP | -0.13
63 | RRIRWRPPRLPRPRPRPHLYPRP | -0.125
64 | RRIRWRPPRLPRPRPRPHMAPRP | 0.00551
65 | RRIRWRPPRLPRPRPRPHNEPRP | -0.476
66 | RRIRWRPPRLPRPRPRPHPPPRP | 0.348
67 | RRIRWRPPRLPRPRPRPHQIPRP | -0.154
68 | RRIRWRPPRLPRPRPRPHQSPRP | 0.0383
69 | RRIRWRPPRLPRPRPRPHRGPRP | -0.0412
70 | RRIRWRPPRLPRPRPRPHSSPRP | -0.0864
71 | RRIRWRPPRLPRPRPRPHTGPRP | -0.233
72 | RRIRWRPPRLPRPRPRPHTTPRP | 0.0145
73 | RRIRWRPPRLPRPRPRPHTVPRP | 0.00981
74 | RRIRWRPPRLPRPRPRPHVNPRP | -0.315
75 | RRIRWRPPRLPRPRPRPHWGPRP | 0.171

Row | Sequence | shrunken log2 fold change
76 | RRIRWRPPRLPRPRPRPHWVPRP | 0.0436
77 | RRIRWRPPRLPRPRPRPIANPRP | 0.00334
78 | RRIRWRPPRLPRPRPRPICQPRP | -0.146
79 | RRIRWRPPRLPRPRPRPICRPRP | -0.0371
80 | RRIRWRPPRLPRPRPRPIDHPRP | -0.166
81 | RRIRWRPPRLPRPRPRPIDLPRP | 0.0151
82 | RRIRWRPPRLPRPRPRPIDYPRP | -0.235
83 | RRIRWRPPRLPRPRPRPIEAPRP | 0.199
84 | RRIRWRPPRLPRPRPRPIEPPRP | 0.0341
85 | RRIRWRPPRLPRPRPRPIESPRP | 0.467
86 | RRIRWRPPRLPRPRPRPIETPRP | 0.0333
87 | RRIRWRPPRLPRPRPRPIFHPRP | -0.101
88 | RRIRWRPPRLPRPRPRPIFKPRP | 0.0632
89 | RRIRWRPPRLPRPRPRPIGEPRP | 0.0833
90 | RRIRWRPPRLPRPRPRPIHTPRP | -0.275
91 | RRIRWRPPRLPRPRPRPIIIPRP | 0.117
92 | RRIRWRPPRLPRPRPRPIIRPRP | -0.00231
93 | RRIRWRPPRLPRPRPRPIKEPRP | 0.0169
94 | RRIRWRPPRLPRPRPRPIKKPRP | -0.0218
95 | RRIRWRPPRLPRPRPRPILCPRP | 0.00316
96 | RRIRWRPPRLPRPRPRPIMMPRP | -0.312
97 | RRIRWRPPRLPRPRPRPIMTPRP | -0.00859
98 | RRIRWRPPRLPRPRPRPINAPRP | 0.252
99 | RRIRWRPPRLPRPRPRPINHPRP | -0.914
100 | RRIRWRPPRLPRPRPRPINLPRP | -0.748

Row | Sequence | shrunken log2 fold change
101 | RRIRWRPPRLPRPRPRPIPLPRP | -0.121
102 | RRIRWRPPRLPRPRPRPIPYPRP | -0.031
103 | RRIRWRPPRLPRPRPRPIQDPRP | 0.0265
104 | RRIRWRPPRLPRPRPRPIQFPRP | -0.0539
105 | RRIRWRPPRLPRPRPRPIRCPRP | 0.0257
106 | RRIRWRPPRLPRPRPRPIRLPRP | -0.268
107 | RRIRWRPPRLPRPRPRPIRTPRP | -0.228
108 | RRIRWRPPRLPRPRPRPISAPRP | -0.0163
109 | RRIRWRPPRLPRPRPRPISGPRP | -0.12
110 | RRIRWRPPRLPRPRPRPITGPRP | 0.047
111 | RRIRWRPPRLPRPRPRPIVPPRP | 0.138
112 | RRIRWRPPRLPRPRPRPIVWPRP | -0.0161
113 | RRIRWRPPRLPRPRPRPIWAPRP | 0.00581
114 | RRIRWRPPRLPRPRPRPIWDPRP | 0.214
115 | RRIRWRPPRLPRPRPRPIYNPRP | -0.896
116 | RRIRWRPPRLPRPRPRPKARPRP | 0.836
117 | RRIRWRPPRLPRPRPRPKCSPRP | 0.0308
118 | RRIRWRPPRLPRPRPRPKDDPRP | 0.553
119 | RRIRWRPPRLPRPRPRPKERPRP | 0.0355
120 | RRIRWRPPRLPRPRPRPKESPRP | 0.293
121 | RRIRWRPPRLPRPRPRPKFCPRP | -0.116
122 | RRIRWRPPRLPRPRPRPKFMPRP | -0.0525
123 | RRIRWRPPRLPRPRPRPKIAPRP | 0.41
124 | RRIRWRPPRLPRPRPRPKIQPRP | 0.21
125 | RRIRWRPPRLPRPRPRPKLYPRP | 0.113

Row | Sequence | shrunken log2 fold change
126 | RRIRWRPPRLPRPRPRPKNEPRP | 0.177
127 | RRIRWRPPRLPRPRPRPKNKPRP | 0.107
128 | RRIRWRPPRLPRPRPRPKNRPRP | 0.017
129 | RRIRWRPPRLPRPRPRPKNTPRP | -0.127
130 | RRIRWRPPRLPRPRPRPKPFPRP | 0.323
131 | RRIRWRPPRLPRPRPRPKPSPRP | 0.512
132 | RRIRWRPPRLPRPRPRPKQEPRP | 0.0489
133 | RRIRWRPPRLPRPRPRPKQFPRP | 0.207
134 | RRIRWRPPRLPRPRPRPKRCPRP | 0.0577
135 | RRIRWRPPRLPRPRPRPKTFPRP | -0.0777
136 | RRIRWRPPRLPRPRPRPKTYPRP | -0.421
137 | RRIRWRPPRLPRPRPRPKVKPRP | 0.49
138 | RRIRWRPPRLPRPRPRPKWLPRP | 0.19
139 | RRIRWRPPRLPRPRPRPKWSPRP | 0.272
140 | RRIRWRPPRLPRPRPRPKYAPRP | -0.0417
141 | RRIRWRPPRLPRPRPRPKYDPRP | -0.449
142 | RRIRWRPPRLPRPRPRPKYRPRP | 0.00658
143 | RRIRWRPPRLPRPRPRPKYYPRP | -0.84
144 | RRIRWRPPRLPRPRPRPLARPRP | 0.432
145 | RRIRWRPPRLPRPRPRPLCCPRP | 0.0117
146 | RRIRWRPPRLPRPRPRPLCEPRP | 0.337
147 | RRIRWRPPRLPRPRPRPLCKPRP | 0.116
148 | RRIRWRPPRLPRPRPRPLDNPRP | -0.23
149 | RRIRWRPPRLPRPRPRPLDTPRP | 0.0244
150 | RRIRWRPPRLPRPRPRPLHFPRP | 0.136
